# Assay: label from the status in PepcDB records
row,Sequence,protein production
1,MTTKRVKKMGKEEMKEMFDLVIYAFNQEPTAERQERFEKLLSHTQSYGFLIDEQLTSQVMATPFQVNFHGVRYPMAGIGYVASYPEYRGEGGISAIMKEMLADLAKQKVALSYLAPFSYPFYRQYGYEQTFEQAEYTIKTEDWPRVKRVPGTIKRVSWADGKEVIKDVYLENQRAHSGGVIRETWWLDYTLNRASKPNNQAIYYSSEGKAEGYVIYRIAAGTFEIVEWNYLTNTAFKALAGFIGSHSGSVQSFHWINGFAGKDLNDLMPTPAASVKILPYMMARIVELQTFLEKYPFQSGEKETYSLEIEDSYGPWNEGIWTITIDEQGKATVTKGAAEKEGTAALKADIQTWTQLFLGYRSAETLSFYERLQGDATIAQRLGQRLVKGMPILEDYF,not failed
2,MNAIGLVGFAFVGAAKAIEERYDVFGVTVVGVMTALGGGTTRDLLLNRVPNSLQSPGEVALSLLGVTAAVLFVHFLDDGHQHPVVLTADAIGLAAFTTTGALLGQQAGLPVFAVVALATVNAAGGGAISDLLLGRTPFILREDFYASCAVIGGLAFWALAQIGVSVSVASAGCALAVLLARGLGIGRGWSLPTVQAWERRDAQ,failed
3,MRGMAANQGERIRRRLSTGERREQLLSVGARLFSESPYDEVWIEQVAEIAGVSRGLLYHYFPNKRDFFAAVVERESERMLRMTAAVPGVPVREQLTAGLDAYLEYVRAHAHGYRAFHRADAAGDRAVRRVYQKALAAQERQILAALAADPEFGPAFEERGDVRLAVRGWLAFTTAVCLEWLRDPEPAREQVRDLCARALLGAVAP,not failed
4,MQTSIDPVFAGWDGSVAQARQLQQQLAQRVALRDEVSAAPALLAGFDVGFEDDGQTTRAAAVLLDAQTLLPLETHVARVPTSMPYVPGLLSFRELPALLRALALLARTPDLVFIDGQGIAHPRRFGIAAHFGVVTGLPSIGVAKQRLAGTFIEPGGERGDHSPILLAGAQIGWALRSKPRCNPLIVSPGHRVSMQGALDWTLRTLRAYRLPEPTRLADRLASRRGEIELQTQPTLLLEHHHHHH,failed
5,MKKGFVSIIIPSYNEASNIKLIYESLRNEFQSIDYDYEIYYINDGSTDRTLEEIKKLAEKSEHVKYISFSRNFGKEAAILAGFQHARGDAVVVMDADLQHPTYLLHDFIKGYEEGYDQVVAQRNRKGDNPVRSYLSSLYYRFINNAVEVDLRDGVGDFRLLSRKAVNAMLKLSEGNRFSKGLFCWIGFDQKIVYYENVERKNGKSKWSFRHLLNYGIDGIVSFNNRPLRMCFYAGIFILFLSLIYIAATFIRILKYGVIVPGYFTIISAVLFLGGVQLLSLGIIGEYIGRIYYETKKRPHYLIQEANIAHGETHENRES,failed
6,MACGKGHDIMEVASPYGWKKNPQKVLDFYNQRRRQLFEVYPNKAHKALAELEKHYQVNIITQNVDDLHERAGSSRILHLHGELLSVRSEKDPNLVYRWEKDLNLGDLAKDKSQLRPDIVWFGEAVPLLKEAISLVKQAHLLIIIGTSLQVYPAASLYTHAHKDALIYYIDPKAKNAHLPQNVQCINESAVHAMQDLMPKLIEMAS,failed
7,MSDAFTDVAKMKKIKEEIKAHEGQVVEMTLENGRKRQKNRLGKLIEVYPSLFIVEFGDVEGDKQVNVYVESFTYSDILTEKNLIHYLD,not failed
8,MMEDRSLNSHGMPSRRGLEPLEWGATGLTVVLSVAAAATQQAILTAIAPLPLSLAVGLNWVSRKKLDDQFQVFRQQQEAKIAELVASQGQQQSELASLNLALAQVRDRLEDVQKQVMQLNQGAQDLHDYTRILDTEQKQIEEVLDCLREIEKNTQVIQVNPSHAKAYYNRGLTHQRLGDAEAAILDYTEAIRLNDTYAKAYHNRGVARSTLGDRKGAVEDLRTAAKLFFEQGDISSYQRARDLAKRIHEVGSIEQDNQEGTIKEVPLEILFS,failed
9,MPPRIEDILPHRGSMLLLAHVDTWDDETLRASAHVDPTAWYADPEGAMPAWFGIELMAQAIAAHVGLLSMREGNPARPGVLLGSRKYEAHAPAFAPAQPLSIAVQEVLRSTEGHGAYACTIAAGGRDLAQAVIKVYQPTDFQAFIEGLEHHHHHH,failed
10,MSLNGSSIIEFEDMTWSQQVEDSKKPVVVMFYSPACPYCKAMEPYFEEYAKEYGSSAVFGRINIATNPWTAEKYGVQGTPTFKFFCHGRPVWEQVGQIYPSILKNAVRDMLQHGEECIRKSTPVGQDITGYVEGHHHHHH,not failed
11,MLTKVIEQAKIDHFTKWFERADKIVIVSHVSPDGDAIGSSLGLYHFLDSQEKTVNVIVPNAFPDFLRWMPGSKDILLYDRYKDFADKLIAEADVICCLDFNALKRIDEMADAVAASPARKVMIDHHLYPEEFCKITMSYPKISSTSELIFRLICRMGYFSDISKEGAECIYTGMMTDTGGFTYNSNNREIYFIISELLSKGIDKDDIYRKVYNTYSESRLRLMGYVLSNMVVYSDYNAALISLTKEEQSKFDYIKGDSEGFVNIPLTIKNVCFSCFLREDTEKPMIKISLRSVGTFPCNQLAAEFFNGGGHLNASGGEFFGTIEEAKAVFEQALEKYKPLLTAKSLEHHHHHH,not failed
12,MKAVFAKLGSDFFSTIVFVVLYFSTGNVALATIVAVLGAVGQFIYAKIKGQRLDVMAYASVALVVVLGGATLLTNDPRFVLIKPSVGHIAVGLLMLRRDWMLRYVPPIVAETIPDYVRIAGYAWAALMLLLGTGVIAAAMTGDIKVWTFYVMVIAPAFKVAAFAGQYLVFRIAIRSRRRAAVATAEPAASTPVTAEP,failed
13,MTEYVHGYSEREALRLSEQAETLEKLLHHDTVYPPGAKVLEAGCGIGAQTVILAKNNPDAEITSIDISPESLEKARENTEKNGIKNVKFLQANIFSLPFEDSSFDHIFVCFVLEHLQSPEEALKSLKKVLKPGGTITVIEGDHGSCYFHPEGKKAIEAWNCLIRVQAYMKGNSLVGRQIYPLLQESGFEKIRVEPRMVYIDSSKPELVDGFILKTIIPMVEGVKEQSLKMQIIKEEEWEKGIEELHKTAEHGGTFCYTFFKGWGTK,failed
14,MGSVAARDYVGIATKYAEAAVADKGRKRHGRWIRLAAKRFLDDLKRARRRGTPFFFDEWHANDACDFIEKLPHVEGKWETPTIVMHPSHVFFVVQLFGFRRRDAIKVEGWGDDDTFHPRRFTSALFAVARKNAKSTLASAILLYCLCCEPEEGAQVISAATTFDQASIIFRASKRMVEKTPDLAEAFGLATWAKSISRFETGSSYKAVHAKASTQDGLNPSHTGLDEIHAHKTADLLNVLQSAAGARANPLWLFTTTEGYTNAGPWAEIRGFVFALLRGVLGTQADHFLALFYALDNEDKSAKITQDDEFDESKWIKANPLLDVNPHLKAAIRKEAVEAKQMPSKLAEFRIKRCNRPASTASGWVDLTKWAKCGGAVDLDWLAGYPCWGGLDLASTTDIAAFRLLWLVEGVWYTHGWRWVPSEAVKQRTERATVPYAGWVEAGYLLQTEGDVTDYSVIERDILAAVQRFDPQQIAYDAWNAADLVNRLVAASVPMVQFVQGTKSYHPAMQALELAYVGGKLVHGGDPVLAWCASNLVARRDVNLSMAPDRKRSADKIDDMAALLMAMGLAVASDDAEDLSDFFNNAVIGLEHHHHHH,not failed
15,MSKKQKSKYIVIFGCGRLGSLIANLASSSGHSVVVVDKNEYAFHRLNSEFSGFTVVGDAAEFETLKECGMEKADMVFAFTNDDSTNFFISMNARYMFNVENVIARVYDPEKIKIFEENGIKTICPAVLMIEKVKEFIIGSEED,not failed
16,MRPSAEALRDRPRCGIRPSMDYYDLGRHGRPVTTSSPEAQRWFDRGLVWTYAFHHEEAVACFEAAVAADPDCAMAHWGIAHALGPNYNKPWDAFDTEELTRTVDRTHAAVERAHALAGRATPAERALIDALRARYPQASAVEDCSVWNAPYADGMRAVYELAPDDLDVAALYADALMNLTPWQLWDLRTGLPAEGARTLAAKEVLDRALAAEGGRDHPGVVHLYIHLMEMSPTPEAALAVADRLRGLVPDAGHLLHMPSHLEVLCGDYRRVVSDNEAAIAADEKCLARSGAMNFYTLYRAHNHHFKIYGAMFLGRYEVALDAAARLEASVPEALLRVESPPMADWLEAFLAMRVHVLIRFGRWTDILALPLPDDPRLYCVTTAMLHYARGVALSATGRVAEAETERDLFRAAVDRVPGSRTLFNNTCADILAIASAMLDGELEYRRGNHTAAFAALERSVELDDNLPYDEPWGWMQPTRHAYGALLLEQGRTAEAEAVYRADLGLDDTLPRPLQHPNNVWALHGLHECLVRLGRAGEVRIVAQQLRFAAALADVPVEASCFCRLGTAPAAGGDAGCCATGQ,failed

# Reference: a protein production outcome set (Wang et al. 2014)
